Experiments:
[1] = target: T1, TSG101 UEV (human), Q99816; assay: FP; conditions: modification not given
T1 chain: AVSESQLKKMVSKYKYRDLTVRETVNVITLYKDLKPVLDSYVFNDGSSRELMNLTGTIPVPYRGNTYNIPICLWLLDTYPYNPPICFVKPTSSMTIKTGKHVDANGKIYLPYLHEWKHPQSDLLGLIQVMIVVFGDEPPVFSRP

MAP1LC3A (human) = assay: FP; conditions: modification not given
[2] = target: SNX27 PDZ (human), Q96L92; assay: FP; conditions: modification not given
GGA1 VHS (human), Q9UJY5 = target: T2, GGA1 VHS (human), Q9UJY5; assay: fluorescence polarisation; displacement of a FITC-labelled probe peptide (5 nM in the measurement) from the protein domain (1-2 fold over the probe's KD) by a dilution series of unlabelled peptide; room temperature; 50 mM sodium phosphate pH 7.4; KD calculated from the displacement curve; for KPNA4 ARM one probe for each pocket
T2 chain: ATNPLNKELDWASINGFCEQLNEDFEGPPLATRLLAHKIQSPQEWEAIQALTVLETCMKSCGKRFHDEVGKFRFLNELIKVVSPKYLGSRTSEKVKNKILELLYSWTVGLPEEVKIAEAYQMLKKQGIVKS

RANBP2 RanBD4 (human) = assay: as above

NGCSSPTAPLEPMSP [GJA1 E]
IC50 [1]: 232 µM

QNLSREWHDVQVSSAY [TPD52L2 E]
IC50 (MAP1LC3A (human)): 223 µM

GMVSETSFNGG [DAXX E]
IC50 [2]: 117 µM

HSGNVTPTAPPYLQES [TMEM55A pS]
IC50 [1]: 34 µM

GMVSSTSFNGG [DAXX pS]
IC50 [2]: 427 µM

QNLSRSWHDVQVSSAY [TPD52L2 pS]
IC50 (MAP1LC3A (human)): 60 µM

HSGNVEPTAPPYLQES [TMEM55A E]
IC50 [1]: 37 µM

NGCSSPTAPLSPMSP [GJA1 pS]
IC50 [1]: 420 µM

DLLESPDVGLLKLAS (modifications not checked) [JUN_(59–73), phosphomimetic (E), P05412 59-73]
Kd (GGA1 VHS (human), Q9UJY5): 450 µM

INLFEKEKEMKKSPTS (modifications not checked) [GTSE1_(145–160), wild‐type, Q9NYZ3 145-160]
Kd (GGA1 VHS (human), Q9UJY5): 96 µM

ETYYLSDEPLLGPPVG (modifications not checked) [GTSE1_(145–160), phosphomimetic (E), Q9NYZ3 145-160]
Kd (GGA1 VHS (human), Q9UJY5): 199 µM

KYSDDTPLPEPSYKYN (modifications not checked) [DHX38_(260–275), phosphomimetic (E), Q92620 260-275]
Kd (RANBP2 RanBD4 (human)): 470 µM
